Reference: publication PMC6872946 (Growth factors (Chur, Switzerland), 2019)
Read-outs that look alike come from different tables or passages of the source. Each block holds one molecule with its values, some of them ahead of it.

Assays:
[1] = biological target: PDGF-C growth factor domain (human); experiment: immunoblot after cleavage with matriptase
[2] = biological target: the molecule itself; experiment: non-reducing SDS-PAGE and immunoblot
[3] = biological target: the molecule itself; experiment: non-reducing SDS-PAGE and immunoblot; remark: listed apart in the source

- stoichiometry N [1]: 2
Molecule: PDGF-C growth factor domain (domain or fragment)

B1: truncated PDGF-C isoform with a C-terminal myc tag (t-PDGF-C-myc), in COS-1 cells (natural protein, human, UniProt Q9NRA1 164-345, looked up)
chain: MPQFTEAVSPSVLPPSALPLDLLNNAITAFSTLEDLIRYLEPERWQLDLEDLYRPTWQLLGKAFVFGRKSRVVDLNLLTEEVRLYSCTPRNFSVSIREELKRTDTIFWPGCLLVKRCGGNCACCLHNCNECQCVPSKVTKKYHEVLQLRPKTGVRGLHKSLTDVALEHHEECDCVCRGSTGG
- stoichiometry N [2]: 2

B2: truncated PDGF-C isoform with a myc tag (t-PDGF-C/myc), stably expressed in BT-549 cells (natural protein, human, UniProt Q9NRA1 164-345, looked up)
chain: B1 chain
- stoichiometry N [3]: 2
